The source of these data is the supplement of paper PMC10567573.

B1: SPOPL (parent)
chain: PDDKLTLFCEVSVVQDSVNISGHT
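Also: lentivirally expressed fusions sorted by FACS into six bins by GFP to DsRed ratio, PSI derived from sequencing read proportions per bin multiplied by bin number.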

The variants in the data set derive from B1. As to the kind of experiment: protein stability index of a GFP-peptide fusion (GPS, HEK-293T) (PSI 1-6); higher = more stable. As to conditions: c terminus: a fixed tail appended.
Consider PDDKLTLFCEVSVVQDAVNISGHT [S17A], for which the protein stability index is 2.29.

In the case of PDDKLTLFCEVSVVQDKVNISGHT [S17K], the protein stability index came out at 3.12.

As to PDDKLTLFCEVSVVQDPVNISGHT [S17P], the protein stability index came out at 2.85.

On to PDDKLTLFCEVSVVQDDVNISGHT [S17D], for which the protein stability index was determined as 3.11.

Take PDDKLTLFCEVSVVQDMVNISGHT [S17M]: the protein stability index is 3.15.

Regarding PDDKLTLFCEVSVVQDQVNISGHT [S17Q], the protein stability index amounted to 2.07.

Take PDDKLTLFCEVSVVQDFVNISGHT [S17F]: the protein stability index was determined as 4.06.

In the case of PDDKLTLFCEVSVVQDTVNISGHT [S17T], the protein stability index came to 1.85.

On to PDDKLTLFCEVSVVQDNVNISGHT [S17N], for which the protein stability index was found to be 1.84.

On to PDDKLTLFCEVSVVQDLVNISGHT [S17L], for which the protein stability index was 3.52.

On to PDDKLTLFCEVSVVQDCVNISGHT [S17C], for which the protein stability index was found to be 2.61.

For the variant PDDKLTLFCEVSVVQDYVNISGHT [S17Y], the protein stability index was 2.99.

On to PDEKLTLFCEVSVVQDSVNISGHT [D3E], for which the protein stability index was 2.2.

Consider PDPKLTLFCEVSVVQDSVNISGHT [D3P], for which the protein stability index is 2.5.

In the case of PDFKLTLFCEVSVVQDSVNISGHT [D3F], the protein stability index turned out to be 1.87.

With PDAKLTLFCEVSVVQDSVNISGHT [D3A], the protein stability index came to 2.06.

As for PDYKLTLFCEVSVVQDSVNISGHT [D3Y], the protein stability index came out at 1.97.

For the variant PDHKLTLFCEVSVVQDSVNISGHT [D3H], the protein stability index came out at 1.47.

On to PDTKLTLFCEVSVVQDSVNISGHT [D3T], for which the protein stability index was 1.51.

With PDGKLTLFCEVSVVQDSVNISGHT [D3G], the protein stability index was determined as 2.43.

In the case of PDKKLTLFCEVSVVQDSVNISGHT [D3K], the protein stability index was determined as 1.83.

With PDQKLTLFCEVSVVQDSVNISGHT [D3Q], the protein stability index turned out to be 1.95.

With FDDKLTLFCEVSVVQDSVNISGHT [P1F], the protein stability index is 2.36.

Take TDDKLTLFCEVSVVQDSVNISGHT [P1T]: the protein stability index is 2.

With KDDKLTLFCEVSVVQDSVNISGHT [P1K], the protein stability index was found to be 2.02.

Regarding WDDKLTLFCEVSVVQDSVNISGHT [P1W], the protein stability index was 2.11.

Consider LDDKLTLFCEVSVVQDSVNISGHT [P1L], for which the protein stability index is 2.2.

YDDKLTLFCEVSVVQDSVNISGHT [P1Y]: the protein stability index was 1.69.

Regarding MDDKLTLFCEVSVVQDSVNISGHT [P1M], the protein stability index worked out at 1.81.

Take PDDKLTLFCEVSVRQDSVNISGHT [V14R]: the protein stability index is 2.74.

In the case of PDDKLTLFCEVSVFQDSVNISGHT [V14F], the protein stability index amounted to 2.08.

Take PDDKLTLFCEVSVHQDSVNISGHT [V14H]: the protein stability index stood at 3.19.

On to PDDKLTLFCEVSVPQDSVNISGHT [V14P], for which the protein stability index stood at 3.59.

With PDDKLTLFCEVSVNQDSVNISGHT [V14N], the protein stability index amounted to 2.62.

For the variant PDDKLTLFCEVSVAQDSVNISGHT [V14A], the protein stability index was 2.63.

On to PDDKLTLFCEVSVVQDSKNISGHT [V18K], for which the protein stability index is 2.69.

For the variant PDDKLTLFCEVSVVQDSDNISGHT [V18D], the protein stability index came out at 3.67.

With PDDKLTLFCEVSVVQDSANISGHT [V18A], the protein stability index came to 2.83.

For PDDKLTLFCEVSVVQDSSNISGHT [V18S], the protein stability index worked out at 2.82.

On to PDDKLTLFCEVSVVQDSCNISGHT [V18C], for which the protein stability index was determined as 1.85.

As for PDDALTLFCEVSVVQDSVNISGHT [K4A], the protein stability index turned out to be 1.89.

Take PDDCLTLFCEVSVVQDSVNISGHT [K4C]: the protein stability index worked out at 1.56.

Turning to PDDMLTLFCEVSVVQDSVNISGHT [K4M], the protein stability index stood at 1.58.

For the variant PDDRLTLFCEVSVVQDSVNISGHT [K4R], the protein stability index worked out at 1.79.

In the case of PDDQLTLFCEVSVVQDSVNISGHT [K4Q], the protein stability index was found to be 2.16.

In the case of PDDKLTLFCEVSEVQDSVNISGHT [V13E], the protein stability index amounted to 4.61.

In the case of PDDKLTLFCEVSQVQDSVNISGHT [V13Q], the protein stability index was 3.95.

For the variant PDDKLTLFCEVSSVQDSVNISGHT [V13S], the protein stability index came out at 3.6.

As for PDDKLTLFCEVSMVQDSVNISGHT [V13M], the protein stability index was found to be 2.12.

As to PDDKLTLFCEVSWVQDSVNISGHT [V13W], the protein stability index came to 2.73.

As for PDDKLTLFCEVSLVQDSVNISGHT [V13L], the protein stability index came out at 2.02.

For the variant PDDKLTLFCEVSDVQDSVNISGHT [V13D], the protein stability index stood at 4.61.

Turning to PDDKLTLFCEVSRVQDSVNISGHT [V13R], the protein stability index is 4.14.

As to PDDKLTLFCEVSHVQDSVNISGHT [V13H], the protein stability index is 3.63.

As for PDDKLTLFCEVSVVQDSVNISGST [H23S], the protein stability index was found to be 2.18.

PDDKLTLFCEVSVVQDSVNISGLT [H23L]: the protein stability index was 1.69.

Regarding PDDKLTLFCEVSVVQDSVNISGWT [H23W], the protein stability index was 5.02.

As for PDDKLTLFCEVSVVQDSVNISGCT [H23C], the protein stability index turned out to be 2.

For PDDKLTLFCEVSVVQDSVNISGAT [H23A], the protein stability index came out at 2.

For PDDKLTLFCEVSVVQDSVNISGET [H23E], the protein stability index is 3.21.

As for PDDKLTLFCEVSVVQDSVNISGVT [H23V], the protein stability index turned out to be 2.03.

Regarding PDDKLTLFCEVDVVQDSVNISGHT [S12D], the protein stability index is 3.66.

In the case of PDDKLTLFCEVRVVQDSVNISGHT [S12R], the protein stability index was determined as 2.32.

With PDDKLTLFCEVTVVQDSVNISGHT [S12T], the protein stability index worked out at 1.71.

As to PDDKLTLFCEVPVVQDSVNISGHT [S12P], the protein stability index is 3.81.

Consider PDDKLTLFCEVCVVQDSVNISGHT [S12C], for which the protein stability index turned out to be 2.73.

As to PDDKLTLFCEVLVVQDSVNISGHT [S12L], the protein stability index was determined as 2.1.

For the variant PDDKLTLFCEVGVVQDSVNISGHT [S12G], the protein stability index came out at 1.94.

As to PDDKLTLFCEVMVVQDSVNISGHT [S12M], the protein stability index stood at 1.79.

As for PDDKLTLFCEVFVVQDSVNISGHT [S12F], the protein stability index came to 2.22.

As to PDDKLTLFCEVEVVQDSVNISGHT [S12E], the protein stability index is 2.23.

For PDDKLTLCCEVSVVQDSVNISGHT [F8C], the protein stability index is 3.22.

For PDDKLTLVCEVSVVQDSVNISGHT [F8V], the protein stability index was found to be 1.97.

With PDDKLTLHCEVSVVQDSVNISGHT [F8H], the protein stability index came out at 3.64.

With PDDKLTLRCEVSVVQDSVNISGHT [F8R], the protein stability index was 2.77.

Take PDDKLTLNCEVSVVQDSVNISGHT [F8N]: the protein stability index amounted to 4.86.

Take PDDKLTLQCEVSVVQDSVNISGHT [F8Q]: the protein stability index is 4.5.

With PDDKLTLICEVSVVQDSVNISGHT [F8I], the protein stability index is 1.3.

Regarding PDDKLTLLCEVSVVQDSVNISGHT [F8L], the protein stability index was 2.91.

For the variant PDDKLTLTCEVSVVQDSVNISGHT [F8T], the protein stability index was found to be 2.9.

Consider PDDKLTLKCEVSVVQDSVNISGHT [F8K], for which the protein stability index amounted to 3.48.

Regarding PDDKLTLFCIVSVVQDSVNISGHT [E10I], the protein stability index turned out to be 2.63.

For the variant PDDKLTLFCNVSVVQDSVNISGHT [E10N], the protein stability index was determined as 2.74.

Take PDDKLTLFCRVSVVQDSVNISGHT [E10R]: the protein stability index came out at 1.94.

PDDKLTLFCVVSVVQDSVNISGHT [E10V]: the protein stability index was determined as 3.33.

Regarding PDDKLTLFCWVSVVQDSVNISGHT [E10W], the protein stability index stood at 2.53.

As to PDDKLTLFCKVSVVQDSVNISGHT [E10K], the protein stability index is 1.45.

With PDDKLTLFCLVSVVQDSVNISGHT [E10L], the protein stability index stood at 3.02.

Turning to PDDKLTLFCFVSVVQDSVNISGHT [E10F], the protein stability index worked out at 3.15.

Turning to PDDKLTLFFEVSVVQDSVNISGHT [C9F], the protein stability index was determined as 2.35.

As to PDDKLTLFLEVSVVQDSVNISGHT [C9L], the protein stability index was 3.25.

With PDDKLTLFEEVSVVQDSVNISGHT [C9E], the protein stability index is 4.47.

As for PDDKLTLFQEVSVVQDSVNISGHT [C9Q], the protein stability index stood at 4.21.

Regarding PDDKLTLFGEVSVVQDSVNISGHT [C9G], the protein stability index came to 4.42.
